Substitutions are numbered along the chain they refer to. In names and notes the source's numbering stands. Like-named read-outs stand apart in the source and are kept apart here.
B1: Se1_KARI^1AA10: S. exigua KARI variant S61C, S63D, I95T (protein, UniProt D0WGK0 1-342, looked up, variant S61C S63D I95T)
Ketol-acid reductoisomerase …: MSVKTKEKEMAVTILYEQDVDPKVIQGLKVGIIGYGSQGHAHALNLMDSGVDVRVGLREGCSDWKTAEEAGLKVTDMDTAAEEADVIMVLVPDETQPKVYQEHIAAHLKAGNTLAFAHGFNIHYGYIVPPEDVNVIMCAPKGPGHIVRRQFTEGSGVPDLACVQQDATGNAWDIVLSYCWGVGGARSGIIKATFAEETEEDLFGEQAVLCGGLVELVKAGFETLTEAGYPPELAYFECYHEMKMIVDLMYESGIHFMNYSISNTAEYGEYYAGPKVINEQSREAMKEILKRIQDGSFAQEFVDDCNNGHKRLLEQREAINTHPIETTGAQIRSMFSWIKKED
B2: Se1_NKR^10C2-his6: S. exigua KARI variant R58P, S61C, S62A, S63D, I95T (protein, UniProt D0WGK0 1-342, looked up, variant R58P S61C S62A S63D I95T)
Ketol-acid reductoisomerase …: B1 Ketol-acid reductoisomerase … with R58P, S62A
modifications: His6 tag
notes: S. exigua KARI variant R58P, S61C, S62A, S63D, I95T
B3: Se1_KARI^HF2-his6: S. exigua KARI variant S61C (protein, UniProt D0WGK0 1-342, looked up, variant S61C)
Ketol-acid reductoisomerase …: B1 Ketol-acid reductoisomerase … with D63S, T95I
modifications: His6 tag
notes: S. exigua KARI variant S61C
B4: Se1_KARI^MH9-his6: S. exigua KARI variant V99L (protein, UniProt D0WGK0 1-342, looked up, variant V99L)
Ketol-acid reductoisomerase …: B1 Ketol-acid reductoisomerase … with C61S, D63S, T95I, V99L
modifications: His6 tag
notes: S. exigua KARI variant V99L
B5: Se1_KARI^LE1-his6: S. exigua KARI variant I95V (protein, UniProt D0WGK0 1-342, looked up, variant I95V)
Ketol-acid reductoisomerase …: B1 Ketol-acid reductoisomerase … with C61S, D63S, T95V
modifications: His6 tag
notes: S. exigua KARI variant I95V
B6: Se1_KARI^GE11-his6: S. exigua KARI variant G60V (protein, UniProt D0WGK0 1-342, looked up, variant G60V)
Ketol-acid reductoisomerase …: B1 Ketol-acid reductoisomerase … with G60V, C61S, D63S, T95I
modifications: His6 tag
notes: S. exigua KARI variant G60V
B7: Se1_KARI^CD10-his6: S. exigua KARI variant Y35H (protein, UniProt D0WGK0 1-342, looked up, variant Y35H)
Ketol-acid reductoisomerase …: B1 Ketol-acid reductoisomerase … with Y35H, C61S, D63S, T95I
modifications: His6 tag
notes: S. exigua KARI variant Y35H
B8: Se1_NKR^2E8-his6: S. exigua KARI variant R58P, S61C, S62P, S63D, I95T (protein, UniProt D0WGK0 1-342, looked up, variant R58P S61C S62P S63D I95T)
Ketol-acid reductoisomerase …: B1 Ketol-acid reductoisomerase … with R58P, S62P
modifications: His6 tag
notes: S. exigua KARI variant R58P, S61C, S62P, S63D, I95T
B9: Se1_KARI^LE9-his6: S. exigua KARI variant I95T (protein, UniProt D0WGK0 1-342, looked up, variant I95T)
Ketol-acid reductoisomerase …: B1 Ketol-acid reductoisomerase … with C61S, D63S
modifications: His6 tag
notes: S. exigua KARI variant I95T
B10: S631: Slackia KARI variant with residue S63 mutated (printed S631, probably S63I) (protein, UniProt D0WGK0 1-342, looked up, variant S63I)
Ketol-acid reductoisomerase …: B1 Ketol-acid reductoisomerase … with C61S, D63I, T95I
B11: Se1_KARI^13G6: S. exigua KARI variant G60V, I95A (protein, UniProt D0WGK0 1-342, looked up, variant G60V I95A)
Ketol-acid reductoisomerase …: B1 Ketol-acid reductoisomerase … with G60V, C61S, D63S, T95A
B12: Se1_KARI^JB7-his6: S. exigua KARI variant S63Q (protein, UniProt D0WGK0 1-342, looked up, variant S63Q)
Ketol-acid reductoisomerase …: B1 Ketol-acid reductoisomerase … with C61S, D63Q, T95I
modifications: His6 tag
notes: S. exigua KARI variant S63Q
B13: Se1_KARI^EE1-his6: S. exigua KARI variant L57R (protein, UniProt D0WGK0 1-342, looked up, variant L57R)
Ketol-acid reductoisomerase …: B1 Ketol-acid reductoisomerase … with L57R, C61S, D63S, T95I
modifications: His6 tag
notes: S. exigua KARI variant L57R
B14: Se1_KARI^EA8-his6: S. exigua KARI variant L57S (protein, UniProt D0WGK0 1-342, looked up, variant L57S)
Ketol-acid reductoisomerase …: B1 Ketol-acid reductoisomerase … with L57S, C61S, D63S, T95I
modifications: His6 tag
notes: S. exigua KARI variant L57S
B15: Se1_NKR^S61DS63D: S. exigua KARI double aspartic acid variant S61D, S63D (protein, UniProt D0WGK0 1-342, looked up, variant S61D S63D)
Ketol-acid reductoisomerase …: B1 Ketol-acid reductoisomerase … with C61D, T95I
modifications: His6 tag
notes: S. exigua KARI double aspartic acid variant S61D, S63D
B16: S63E: Slackia KARI variant with residue S63 mutated to E (protein, UniProt D0WGK0 1-342, looked up, variant S63E)
Ketol-acid reductoisomerase …: B1 Ketol-acid reductoisomerase … with C61S, D63E, T95I
B17: S63R: Slackia KARI variant with residue S63 mutated to R (protein, UniProt D0WGK0 1-342, looked up, variant S63R)
Ketol-acid reductoisomerase …: B1 Ketol-acid reductoisomerase … with C61S, D63R, T95I
B18: S63H: Slackia KARI variant with residue S63 mutated to H (protein, UniProt D0WGK0 1-342, looked up, variant S63H)
Ketol-acid reductoisomerase …: B1 Ketol-acid reductoisomerase … with C61S, D63H, T95I
B19: Se1_KARI^1A8: S. exigua KARI variant G60V, I95V, V99L (protein, UniProt D0WGK0 1-342, looked up, variant G60V I95V V99L)
Ketol-acid reductoisomerase …: B1 Ketol-acid reductoisomerase … with G60V, C61S, D63S, T95V, V99L
B20: S63M: Slackia KARI variant with residue S63 mutated to M (protein, UniProt D0WGK0 1-342, looked up, variant S63M)
Ketol-acid reductoisomerase …: B1 Ketol-acid reductoisomerase … with C61S, D63M, T95I

Key:
[1] = KARI assay of purified S. exigua KARI and variants with NADH (Examples 6-9); type: biochemical; conditions: for U/mg NADH (specific activity): cofactor NADH; for Km: read-out: Km for cofactor NADH; for Ratio NADH/NADPH (U/mg): specific activity ratio
Description: (§1) S. exigua KARI activity or activities of its variants were assayed kinetically by monitoring the decrease in NADPH or NADH concentration by measuring the change in absorbance at 340 nm. An assay buffer was prepared containing 100 mM potassium phosphate pH 7.0, 1 mM DTT, 2.5 mM (S)-2-acetolactate, and 10 mM MgCl2 (final concentrations in the 1-mL assay, accounting for dilution with enzyme and cofactor). Fifty μL purified enzyme and 930 μL of the assay buffer were placed into a 1-mL cuvette. The reaction was initiated by addition of 20 μL NADPH or NADH (200 μM final concentration) for a general activity assay. Michaelis-Menten constants of the cofactors were determined with varying concentrations of NADPH (200-12 μM final) or NADH (200-6 μM final).

[2] = KARI assay of purified S. exigua KARI and variants with NADPH (Examples 6-9); type: biochemical; conditions: for U/mg NADPH (specific activity): cofactor NADPH; for Km: read-out: Km for cofactor NADPH
Description: as §1

Molecule	kcat NADH [1] [s⁻¹]	U/mg NADH (specific activity) [1] [U/mg]	Km [1] [µM]	Ratio NADH/NADPH (U/mg) [1]	kcat NADPH [2] [s⁻¹]	U/mg NADPH (specific activity) [2] [U/mg]	other results
B1	0.8	0.32	62	1.2	0.67	0.27	NADH KM value, fold increased versus wild-type [1]: 1.3 fold; kcat with NADH, fold increase versus wild-type [1]: 2 fold; kcat/Km ratio NADH/NADPH (cofactor specificity) [1]: 7.1; U/mg NADH (specific activity) ([1]; listed as 1AA10): 0.8 U/mg; kcat/Km ratio NADH/NADPH (cofactor specificity) ([1]; listed as Se1_KARI^1AA10-his6): 7; NADPH KM value, fold increased versus wild-type/parent [2]: at least 367 fold; kcat with NADPH, fold decreased versus wild-type [2]: 1.2 fold; NADPH KM value, fold increased versus wild-type/parent ([2]; listed as Se1_KARI^1AA10-his6): > 367 fold; Km [2]: 367 µM
B2	0.27	0.11	250	3.4	0.08	0.032	kcat/Km ratio NADH/NADPH (cofactor specificity) [1]: 14; NADPH-dependent activity (in words) [2]: virtually abolished; Km [2]: > 1000 µM
B3	0.45	0.18	43.8	0.78	0.57	0.23	–
B4	–	0.21	–	0.64	–	0.34	–
B5	0.74	0.3	19	0.8	1.00	0.4	U/mg NADH (specific activity) ([1]; listed as Se1_KARI^LE1): 0.30 U/mg; U/mg NADPH (specific activity) ([2]; listed as Se1_KARI^LE1): 0.40 U/mg
B6	1	0.4	–	0.48	2	0.8	U/mg NADH (specific activity) ([1]; listed as Se1_KARI^GE11): 0.40 U/mg; Ratio NADH/NADPH (U/mg) ([1]; listed as Se1_KARI^GE11): 0.50
B7	–	0.13	–	0.68	–	0.19	–
B8	0.4	0.16	87	3.6	0.1	0.044	NADH KM value, fold increased versus wild-type [1]: 2 fold; kcat/Km ratio NADH/NADPH (cofactor specificity) [1]: 46; NADPH-dependent activity (in words) [2]: virtually abolished; Km [2]: > 1000 µM
B9	–	0.32	–	0.58	–	0.56	–
B10	–	–	–	4	–	–	–
B11	0.74	0.30	34	0.8	0.90	0.37	kcat/Km ratio NADH/NADPH (cofactor specificity) [1]: 0.03; Km [2]: < 1 µM
B12	0.69	0.28	–	0.47	1.5	0.6	–
B13	–	0.06	–	1.58	–	0.04	–
B14	–	0.19	–	0.76	–	0.25	–
B15	1 ± 0.13	0.4 ± 0.05	113 ± 4	9.5	0.1 ± 0.01	0.042 ± 0.005	NADH KM value, fold increased versus wild-type [1]: 2.5 fold; kcat in presence of NADH, fold higher than in presence of NADPH [1]: 10 fold; kcat/Km ratio NADH/NADPH (cofactor specificity) [1]: 78; kcat NADH ([1]; listed as S61D/S63D): 1 s⁻¹; kcat NADH ([1]; listed as Se1_NKR^DD-his6): 1 s⁻¹; kcat/Km ratio NADH/NADPH (cofactor specificity) ([1]; listed as Se1_NKR^DD-his6): 76; NADPH KM value, fold increased versus wild-type/parent [2]: more than 800 fold; U/mg NADPH (specific activity) ([2]; listed as Se1_NKR^DD-his6): 0.04 ± 0.005 U/mg; kcat NADPH ([2]; listed as S61D/S63D): 0.1 s⁻¹; kcat NADPH ([2]; listed as Se1_NKR^DD-his6): 0.1 s⁻¹; Km [2]: 880 ± 500 µM
B16	–	–	–	9	–	–	–
B17	–	–	–	3.7	–	–	–
B18	–	–	–	4	–	–	–
B19	0.65	0.26	–	0.8	0.79	0.32	–
B20	–	–	–	4	–	–	–

From patent US20140295512A1, “Ketol-Acid Reductoisomerases With Improved Performance Properties” (CALIFORNIA INSTITUTE OF TECHNOLOGY, priority 2011, published 2014)
